From publication PMC11757908

Target: trastuzumab (human)
Assay: charge-stabilized self-interaction nanoparticle spectroscopy

trastuzumab (antibody)
CS-SINS score: 0.1
